# Where a chain is given by its changes, count along the chain named. Names may count otherwise.
# B1: PcPOX (pyranose 2-oxidase from Phanerochaete chrysosporium) (Phanerodontia chrysosporium) (protein)
# chain: MFLDTTPFRADEPYDVFIAGSGPIGATFAKLCVDANLRVCMVEIGAADSFTSKPMKGDPNAPRSVQFGPGQVPIPGYHKKNEIEYQKDIDRFVNVIKGALSTCSIPTSNNHIATLDPSVVSNSLDKPFISLGKNPAQNPFVNLGAEAVTRGVGGMSTHWTCATPEFFAPADFNAPHRERPKLSTDAAEDARIWKDLYAQAKEIIGTSTTEFDHSIRHNLVLRKYNDIFQKENVIREFSPLPLACHRLTDPDYVEWHATDRILEELFTDPVKRGRFTLLTNHRCTKLVFKHYRPGEENEVDYALVEDLLPHMQNPGNPASVKKIYARSYVVACGAVATAQVLANSHIPPDDVVIPFPGGEKGSGGGERDATIPTPLMPMLGKYITEQPMTFCQVVLDSSLMEVVRNPPWPGLDWWKEKVARHVEAFPNDPIPIPFRDPEPQVTIKFTEEHPWHVQIHRDAFSYGAVAENMDTRVIVDYRFFGYTEPQEANELVFQQHYRDAYDMPQPTFKFTMSQDDRARARRMMDDMCNIALKIGGYLPGSEPQFMTPGLALHLAGTTRCGLDTQKTVGNTHCKVHNFNNLYVGGNGVIETGFAANPTLTSICYAIRASNDIIAKFGRHRG
# B2: PcPOX (pyranose 2-oxidase from Phanerochaete chrysosporium) (Phanerodontia chrysosporium; A551L) (protein)
# chain: B1 chain with A551L
# B3: PcPOX (pyranose 2-oxidase from Phanerochaete chrysosporium) (Phanerodontia chrysosporium; A551N) (protein)
# chain: B1 chain with A551N
# Substrate: OC[C@H]1OC(O)[C@H](O)[C@@H](O)[C@@H]1O
# Experiment: purified protein
# Assay type: biochemical, Phanerodontia chrysosporium
# Settings: 50 mM sodium phosphate pH 7.0, electron acceptor O2
Protein,Km [mM],kcat [s⁻¹],kcat/Km [M⁻¹ s⁻¹]
B1,0.978 ± 0.156,115 ± 2,120000
B2,3.44 ± 1.15,0.00659 ± 0.00129,1.9
B3,12.1 ± 0.3,0.496 ± 0.021,41

# Substrate: OC[C@H]1OC[C@H](O)[C@@H](O)[C@@H]1O
# Experiment: purified protein
# Assay type: biochemical, Phanerodontia chrysosporium
# Settings: 50 mM sodium phosphate pH 7.0, electron acceptor O2
Protein,Km [mM],kcat [s⁻¹],kcat/Km [M⁻¹ s⁻¹]
B1,18.9 ± 4.4,82.5 ± 10.3,4400
B2,26.9 ± 3.5,0.00696 ± 0.00027,0.26
B3,65.7 ± 4.5,0.253 ± 0.006,3.8

# From publication PMC8135088
